Laboratory results taken from patent publication US20020064828A1.

Target: full-length human presenilin 2 (PS2) expressed in HeLa cells (human) (UniProt P49810)
Experiment: cell-based or functional assay

calmyrin-EF-C mutant (E172Q) (from UniProt Q99828 2-191)
cell death (floating HeLa cells), fold, on coexpression with PS2: 1.05 fold

calmyrin-EF-N mutant (D127N) (from UniProt Q99828 2-191)
cell death (floating HeLa cells), fold, on coexpression with PS2: 1 fold

calmyrin-MYR mutant (G2A, myristoylation-deficient calmyrin) (from UniProt Q99828 3-191)
cell death (floating HeLa cells), fold, on coexpression with PS2: < 2.09 fold
